Source: patent US20100260668A1 (published 2010)

Legend:
[1] = biological target: T1, DLL4 (DLL ECD His tag, R&D 1506-D4-050) (UniProt Q9NR61 27-529); test: BIACORE (SPR), DVD-Ig against DLL4
T1 construct: extracellular domain; bought

[2] = biological target: T2, VEGF (UniProt P15692-4 27-191); test: BIACORE SPR
T2 construct: Bought reagent; also called vascular endothelial growth factor
T2 sequence (P15692 other isoform, or with tags, fused parts or gaps limits assumed): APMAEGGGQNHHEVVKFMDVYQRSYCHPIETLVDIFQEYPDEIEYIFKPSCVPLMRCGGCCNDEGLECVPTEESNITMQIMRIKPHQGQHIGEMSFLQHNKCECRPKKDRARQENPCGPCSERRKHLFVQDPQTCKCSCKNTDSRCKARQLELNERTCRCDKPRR

Binder | Kd [1] | koff [1] | kon [1] | Kd [2] | koff [2] | kon [2]
DVD521 (bispecific antibody, human IgG1, kappa, lambda, L234A L235A, DVD-Ig; N-term; AB073 (DLL4), C-term; AB071 (VEGF); HC linker long, LC linker long; also called DVD521H; DVD521L) heavy: not shown light: QAVVTQESALTTSPGETVTLTCRSSTGAVTTSNYANWVQEKPDHLFTGLIGGTNNRAPGVPARFSGSLIGDKAALTITGAQTEDEAIYFCALWYSNHWVFGGGTKLTVLGQPKAAPSVTLFPPDIQMTQSPSSLSASVGDRVTITCRASQVIRRSLAWYQQKPGKAPKLLIYAASNLASGVPSRFSGSGSGTDFTLTISSLQPEDFATYYCQQSNTSPLTFGQGTKVEIKRTVAAPSVFIFPPSDEQLKSGTASVVCLLNNFYPREAKVQWKVDNALQSGNSQESVTEQDSKDSTYSLSSTLTLSKADYEKHKVYACEVTHQGLSSPVTKSFNRGEC |  |  |  | 0.882 nM | 0.000588 s⁻¹ | 666000 M⁻¹ s⁻¹
DVD533 (bispecific antibody, human IgG1, kappa, lambda, L234A L235A, DVD-Ig; N-term; AB073 (DLL4), C-term; AB071 (VEGF); HC linker short, LC linker long; also called DVD533H; DVD533L) heavy: not shown light: QAVVTQESALTTSPGETVTLTCRSSTGAVTTSNYANWVQEKPDHLFTGLIGGTNNRAPGVPARFSGSLIGDKAALTITGAQTEDEAIYFCALWYSNHWVFGGGTKLTVLGQPKAAPSVTLFPPDIQMTQSPSSLSASVGDRVTITCRASQVIRRSLAWYQQKPGKAPKLLIYAASNLASGVPSRFSGSGSGTDFTLTISSLQPEDFATYYCQQSNTSPLTFGQGTKVEIKRTVAAPSVFIFPPSDEQLKSGTASVVCLLNNFYPREAKVQWKVDNALQSGNSQESVTEQDSKDSTYSLSSTLTLSKADYEKHKVYACEVTHQGLSSPVTKSFNRGEC |  |  |  | 0.825 nM | 0.000501 s⁻¹ | 608000 M⁻¹ s⁻¹
DVD491 (bispecific antibody, human IgG1, kappa, DVD-Ig; N-term; AB072 (DLL4), C-term; AB071 (VEGF); HC linker short, LC linker short; also called DVD491H; DVD491L) heavy: not shown light: DIQMTQSSSYLSVSLGGRVTITCKASDHINNWLAWYQQKPGNAPRLLISGATSLETGVPSRFSGSGSGKDYTLSITSLQTEDVATYYCQQYWSIPLTFGAGTKLELKRTVAAPDIQMTQSPSSLSASVGDRVTITCRASQVIRRSLAWYQQKPGKAPKLLIYAASNLASGVPSRFSGSGSGTDFTLTISSLQPEDFATYYCQQSNTSPLTFGQGTKVEIKRTVAAPSVFIFPPSDEQLKSGTASVVCLLNNFYPREAKVQWKVDNALQSGNSQESVTEQDSKDSTYSLSSTLTLSKADYEKHKVYACEVTHQGLSSPVTKSFNRGEC |  |  |  | 0.72 nM | 0.000245 s⁻¹ | 340000 M⁻¹ s⁻¹
DVD476 (bispecific antibody, human IgG1, kappa, DVD-Ig; N-term; VD VEGF (AB014), C-term; VD DLL4 (AB015); HC linker long, LC linker short; also called DVD-Ig DVD476; DVD476H) heavy: not shown light: DIQMTQSPSSLSASVGDRVTITCSASQDISNYLNWYQQKPGKAPKVLIYFTSSLHSGVPSRFSGSGSGTDFTLTISSLQPEDFATYYCQQYSTVPWTFGQGTKVEIKRTVAAPDIQMTQSPSSLSASVGDRVTITCRASQDVSTAVAWYQQKPGKAPKLLIYSASFLYSGVPSRFSGSGSGTDFTLTISSLQPEDFATTYYCQQSYTGTVTFGQGTKVEIKRTVAAPSVFIFPPSDEQLKSGTASVVCLLNNFYPREAKVQWKVDNALQSGNSQESVTEQDSKDSTYSLSSTLTLSKADYEKHKVYACEVTHQGLSSPVTKSFNRGEC | 2.96 nM | 0.000167 s⁻¹ | 56300 M⁻¹ s⁻¹ |  |  | 

Second part, the binder after the results:

Kd [1] | koff [1] | kon [1] | Kd [2] | koff [2] | kon [2] | Binder
3.72 nM | 0.000454 s⁻¹ | 122000 M⁻¹ s⁻¹ |  |  |  | DVD518 (bispecific antibody, human IgG1, kappa, lambda, DVD-Ig; N-term; VD VEGF (AB014), C-term; VD DLL4 (AB073); HC linker long, LC linker long; also called DVD-Ig DVD518; DVD518H) heavy: not shown light: DIQMTQSPSSLSASVGDRVTITCSASQDISNYLNWYQQKPGKAPKVLIYFTSSLHSGVPSRFSGSGSGTDFTLTISSLQPEDFATYYCQQYSTVPWTFGQGTKVEIKRTVAAPSVFIFPPQAVVTQESALTTSPGETVTLTCRSSTGAVTTSNYANWVQEKPDHLFTGLIGGTNNRAPGVPARFSGSLIGDKAALTITGAQTEDEAIYFCALWYSNHWVFGGGTKLTVLGQPKAAPSVTLFPPSSEELQANKATLVCLISDFYPGAVTVAWKADSSPVKAGVETTTPSKQSNNKYAASSYLSLTPEQWKSHRSYSCQVTHEGSTVEKTVAPTECS
2.94 nM | 0.000757 s⁻¹ | 258000 M⁻¹ s⁻¹ |  |  |  | DVD512 (bispecific antibody, human IgG1, lambda, L234A L235A, DVD-Ig; N-term; VD VEGF (AB014), C-term; VD DLL4 (AB073); HC linker short, LC linker short; also called DVD-Ig DVD512; DVD512H) heavy: not shown light: DIQMTQSPSSLSASVGDRVTITCSASQDISNYLNWYQQKPGKAPKVLIYFTSSLHSGVPSRFSGSGSGTDFTLTISSLQPEDFATYYCQQYSTVPWTFGQGTKVEIKRTVAAPQAVVTQESALTTSPGETVTLTCRSSTGAVTTSNYANWVQEKPDHLFTGLIGGTNNRAPGVPARFSGSLIGDKAALTITGAQTEDEAIYFCALWYSNHWVFGGGTKLTVLGQPKAAPSVTLFPPSSEELQANKATLVCLISDFYPGAVTVAWKADSSPVKAGVETTTPSKQSNNKYAASSYLSLTPEQWKSHRSYSCQVTHEGSTVEKTVAPTECS
 |  |  | 0.466 nM | 0.000105 s⁻¹ | 226000 M⁻¹ s⁻¹ | DVD503 (bispecific antibody, human IgG1, kappa, DVD-Ig; N-term; AB072 (DLL4), C-term; AB071 (VEGF); HC linker long, LC linker short; also called DVD503H; DVD503L) heavy: not shown light: DIQMTQSSSYLSVSLGGRVTITCKASDHINNWLAWYQQKPGNAPRLLISGATSLETGVPSRFSGSGSGKDYTLSITSLQTEDVATYYCQQYWSIPLTFGAGTKLELKRTVAAPDIQMTQSPSSLSASVGDRVTITCRASQVIRRSLAWYQQKPGKAPKLLIYAASNLASGVPSRFSGSGSGTDFTLTISSLQPEDFATYYCQQSNTSPLTFGQGTKVEIKRTVAAPSVFIFPPSDEQLKSGTASVVCLLNNFYPREAKVQWKVDNALQSGNSQESVTEQDSKDSTYSLSSTLTLSKADYEKHKVYACEVTHQGLSSPVTKSFNRGEC
8.4 nM | 0.000281 s⁻¹ | 33400 M⁻¹ s⁻¹ |  |  |  | DVD043 (bispecific antibody, human IgG1, kappa, DVD-Ig; N-term; VD VEGF (AB014), C-term; VD DLL4 (AB015); HC linker short, LC linker short; also called DVD-Ig DVD043; DVD043H) heavy: not shown light: DIQMTQSPSSLSASVGDRVTITCSASQDISNYLNWYQQKPGKAPKVLIYFTSSLHSGVPSRFSGSGSGTDFTLTISSLQPEDFATYYCQQYSTVPWTFGQGTKVEIKRTVAAPDIQMTQSPSSLSASVGDRVTITCRASQDVSTAVAWYQQKPGKAPKLLIYSASFLYSGVPSRFSGSGSGTDFTLTISSLQPEDFATTYYCQQSYTGTVTFGQGTKVEIKRTVAAPSVFIFPPSDEQLKSGTASVVCLLNNFYPREAKVQWKVDNALQSGNSQESVTEQDSKDSTYSLSSTLTLSKADYEKHKVYACEVTHQGLSSPVTKSFNRGEC
